# According to PMC6449425, “Sterol Regulatory Element-Binding Protein (Sre1) Promotes the Synthesis of Carotenoids and Sterols in Xanthophyllomyces dendrorhous”:
# T1: Sre1 bHLH DNA-binding domain (UniProt A0A5B8KSW3 349-477)
# T1 sequence: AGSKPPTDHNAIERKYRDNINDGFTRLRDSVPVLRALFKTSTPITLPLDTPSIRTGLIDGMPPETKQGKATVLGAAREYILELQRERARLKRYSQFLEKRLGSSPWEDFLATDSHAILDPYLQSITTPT
# B1: probe A (HMGS SRE1+SRE2) (dsDNA)
# DNA 1: CCATCGTCACTCTCGTCTCCTGACCCGTTGGGGCTATGTAACACCACACGTGACTCCACT
# DNA 2: AGTGGAGTCACGTGTGGTGTTACATAGCCCCAACGGGTCAGGAGACGAGAGTGACGATGG
# B2: SRE1*+SRE2 (probe B, by order) (dsDNA)
# DNA 1: CCATCGTCACTCTTTATTCTTTTTCCGTTGGGGCTATGTAACACCACACGTGACTCCACT
# DNA 2: AGTGGAGTCACGTGTGGTGTTACATAGCCCCAACGGAAAAAGAATAAAGAGTGACGATGG
# B3: SRE1+SRE2* (probe C, by order) (dsDNA)
# DNA 1: CCATCGTCACTCTCGTCTCCTGACCCGTTGGGGCTATAATTCATTTTACGTGACTCCACT
# DNA 2: AGTGGAGTCACGTAAAATGAATTATAGCCCCAACGGGTCAGGAGACGAGAGTGACGATGG
# B4: probe D (SRE1*+SRE2*) (dsDNA)
# DNA 1: CCATCGTCACTCTTTATTCTTTTTCCGTTGGGGCTATAATTCATTTTACGTGACTCCACT
# DNA 2: AGTGGAGTCACGTAAAATGAATTATAGCCCCAACGGAAAAAGAATAAAGAGTGACGATGG
# Assays:
# [1] = biological target: T1, Sre1 bHLH DNA-binding domain; assay: EMSA; 1.7 nM protein, 0.5 nM probe; two shifted bands; 50 mM Hepes-KOH pH 7.5, 100 mM KCl, 5 mM MgCl2, 1 mM DTT, 20% glycerol, 0.8 mg/ml BSA, 0.3 mg/ml poly(dI-dC), 22°C 30 min; gel 0.5x TBE 4°C; settings: protein: recombinant; tags: His-tag (pET-TEV, TEV site); chain copies: 2; blunt
# [2] = biological target: T1, Sre1 bHLH DNA-binding domain; assay: EMSA; 1.7 nM protein, 0.5 nM probe; single (fast) shifted band; 50 mM Hepes-KOH pH 7.5, 100 mM KCl, 5 mM MgCl2, 1 mM DTT, 20% glycerol, 0.8 mg/ml BSA, 0.3 mg/ml poly(dI-dC), 22°C 30 min; gel 0.5x TBE 4°C; settings: protein: recombinant; tags: His-tag (pET-TEV, TEV site); chain copies: 2; label: 3' biotin; blunt
# [3] = biological target: T1, Sre1 bHLH DNA-binding domain; assay: EMSA; 1.7 nM protein, 0.5 nM probe; no shift; 50 mM Hepes-KOH pH 7.5, 100 mM KCl, 5 mM MgCl2, 1 mM DTT, 20% glycerol, 0.8 mg/ml BSA, 0.3 mg/ml poly(dI-dC), 22°C 30 min; gel 0.5x TBE 4°C; settings: protein: recombinant; tags: His-tag (pET-TEV, TEV site); chain copies: 2; blunt
Binder,binding result [2],further results
B1,,binding result [1]: binds
B2,binds,
B3,binds,
B4,,binding result [3]: no binding
